# Reference: article PMC5011719, “The amyloid fold of Gad m 1 epitopes governs IgE binding” (Scientific Reports, 2016)
# B1: rGad m 1 wt (recombinant Gad m 1, Atlantic cod beta-parvalbumin) (natural protein, UniProt A5I874 1-109, looked up)
# chain: MAFAGILNDADITAALAACKAEGSFDHKAFFTKVGLAAKSSADIKKVFEIIDQDKSDFVEEDELKLFLQNFSAGARALSDAETKVFLKAGDSDGDGKIGVDEFGAMIKA
# notes: Gad m 1, Atlantic cod beta-parvalbumin; synthetic ORF in pET15b; Monomer in Ca2+, forms amyloids in EDTA; also called rGad wt; not shown: 6XHis, N-terminal, kept
# Molecular target: the molecule itself
# Assay: AFM + dynamic light scattering; fibril dimensions from AFM images (2 nm height, 15 nm diameter, average length 350 nm) and the RH of the monomer from DLS; geometrical calculation
protein,measurement,value
B1,stoichiometry N,370
